Values quoted from earlier work, collected in paper PMC3634455.

Experiments:
tPA (Homo sapiens) = tPA (Homo sapiens) (UniProt P00750)
[1] = target: plasminogen (Homo sapiens) (UniProt P00747)
UniProt P00747, sequence (P00747 20-810): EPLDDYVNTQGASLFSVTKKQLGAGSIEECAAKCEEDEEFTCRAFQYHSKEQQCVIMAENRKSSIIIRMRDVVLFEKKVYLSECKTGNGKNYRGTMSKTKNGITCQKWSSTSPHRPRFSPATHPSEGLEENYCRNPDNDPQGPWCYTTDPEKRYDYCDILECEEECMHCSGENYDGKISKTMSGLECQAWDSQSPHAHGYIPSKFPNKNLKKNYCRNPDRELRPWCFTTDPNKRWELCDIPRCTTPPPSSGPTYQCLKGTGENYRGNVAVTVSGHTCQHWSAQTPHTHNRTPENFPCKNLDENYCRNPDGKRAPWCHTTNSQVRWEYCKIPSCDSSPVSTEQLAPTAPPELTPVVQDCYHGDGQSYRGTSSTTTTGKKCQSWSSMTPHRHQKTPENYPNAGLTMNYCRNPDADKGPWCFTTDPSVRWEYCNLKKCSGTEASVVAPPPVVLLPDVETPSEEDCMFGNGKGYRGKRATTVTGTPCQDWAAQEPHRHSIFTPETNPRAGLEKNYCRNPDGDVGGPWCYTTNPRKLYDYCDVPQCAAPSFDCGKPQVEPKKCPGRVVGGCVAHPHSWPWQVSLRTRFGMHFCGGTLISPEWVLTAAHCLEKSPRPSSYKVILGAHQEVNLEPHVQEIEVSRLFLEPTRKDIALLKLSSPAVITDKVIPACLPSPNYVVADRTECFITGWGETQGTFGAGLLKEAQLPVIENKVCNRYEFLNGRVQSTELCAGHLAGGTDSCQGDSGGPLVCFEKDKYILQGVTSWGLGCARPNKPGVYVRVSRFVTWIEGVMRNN

UniProt P00750, sequence (P00750 36-562): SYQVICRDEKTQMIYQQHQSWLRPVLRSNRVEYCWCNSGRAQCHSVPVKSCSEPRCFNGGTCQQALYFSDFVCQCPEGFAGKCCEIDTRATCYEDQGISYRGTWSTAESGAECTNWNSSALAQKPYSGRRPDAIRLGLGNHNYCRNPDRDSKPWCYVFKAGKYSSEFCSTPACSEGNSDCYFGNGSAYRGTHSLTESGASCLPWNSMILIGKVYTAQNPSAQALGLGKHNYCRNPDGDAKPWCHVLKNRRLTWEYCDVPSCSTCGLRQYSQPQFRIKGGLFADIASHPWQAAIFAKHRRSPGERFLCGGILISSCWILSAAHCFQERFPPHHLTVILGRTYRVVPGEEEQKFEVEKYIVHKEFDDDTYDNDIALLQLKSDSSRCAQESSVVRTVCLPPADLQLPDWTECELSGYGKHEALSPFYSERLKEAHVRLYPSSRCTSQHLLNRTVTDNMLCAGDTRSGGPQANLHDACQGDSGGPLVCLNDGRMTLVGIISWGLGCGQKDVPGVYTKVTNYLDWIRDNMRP

In the case of “S100A10 (annexin A2 heterotetramer) (from UniProt P60903)”, the Kd (tPA (Homo sapiens)) is given as 0.68 µM and the Kd [1] is given as 0.11 µM.
